{
  "source": "patent US20050272636A1",
  "about": "“Treatment and diagnosis of a reproductive disorder by measuring or inhibiting interferon-gamma” (Adelaide Research & Innovation Pty Ltd., priority 2002, published 2005)",
  "molecules": {"B1": {"name": "rIFNγ: recombinant mouse IFNγ (R&D Systems) (protein, UniProt P01580 23-155, looked up)", "Interferon gamma": "HGTVIESLESLNNYFNSSGIDVEEKSLFLDIWRNWQKDGDMKILQSQIISFYLRLFEVLKDNQAISNNISVIESHLITTFFSNSKAKKDAFMSIAKFEVNNPQVQRQAFNELIRVVHQLLPESSLRKRKRSRC"}},
  "key": {"[1]": {"test_system": "murine uterine epithelial cells", "assay": "Effect of rIFNγ and rTGFβ on GM-CSF production in cultured uterine epithelial cells (Example 2)", "format": "cell-based, mouse", "experimental": "Uterine Epithelial Cell Cultures. Uterine epithelial cells prepared as previously described (Robertson et al., Biol Reprod 46:1069-1079 (1992)) were pooled from 4-6 estrous C57B1/6 or C57B1/6×Balb/c F1 mice and plated in 1 ml culture wells (Nunc, Roskilde, Germany) at 1-2×10^5 cells per ml in 500 μl of Dulbecco's modified Eagles medium containing 10% FCS, […] streptomycin sulphate and […] benzyl penicillin (DMEM +penicillin). After 4 h incubation at 37° C. in 5% CO2 to allow cell adherence, a further 500 μl of DMEM +penicillin, or DMEM +penicillin plus recombinant mouse IFNγ (rIFNγ) and/or recombinant human TGFβ1 (rTGFβ), were added. In some experiments, penicillin-free DMEM (DMEM −penicillin) was used throughout. Culture supernatants were collected and replaced with fresh medium at 16 hours, then collected again 24 hours later, at which time GM-CSF content was determined and adherent cells were quantified as previously described (Robertson et al., Biol Reprod 46:1069-1079 (1992)). All treatments were performed in duplicate or triplicate. rTGFβ and rIFNγ were obtained from R&D Systems, UK.\nGM-CSF bioassay: GM-CSF was assayed using the GM-CSF dependant cell line FD 5/12, essentially as previously described (Robertson et al., Biol Reprod 46:1069-1079 (1992)). Cell proliferation was determined by pulsing with 1 μCi of [^3H]-thymidine per well for the last 6 h of the assay. The minimal detectable amount of GM-CSF was 20 pg/ml. The identity of the bioactivity in uterine epithelial cell cultures was confirmed using a goat polyclonal antibody to murine GM-CSF (DNAX, Palo Alto, Calif.) as previously described (Robertson et al., Biol Reprod 46:1069-1079 (1992)). GM-CSF production is expressed as ng GM-CSF/10^5 cells/24 h. Recombinant mouse GM-CSF was obtained from R&D Systems."}, "[2]": {"test_system": "murine uterine epithelial cells", "assay": "Effect of IFNγ on GM-CSF synthesis in murine uterine epithelial cells (Example 3)", "format": "cell-based, mouse", "experimental": "Uterine Epithelial Cell Cultures. Uterine epithelial cells prepared by pancreatin-trypsin digest as previously described (Robertson et al., (1992) Biol. Reprod. 46:1069-1079) were pooled from 4-6 estrous adult C57B1/6×CBA F1 female mice and plated in 1 ml culture wells (Nunc, Roskilde, Germany) at 1-2×10^5 cells per ml in 500 μl of RPMI containing 10% FCS and streptomycin (RPMI-FCS). Penicillin was omitted from culture media except where specified. After 4 h incubation at 37° C. in 5% CO2 to allow cell adherence, a further 500 μl of cytokines or antibodies in RPMI-FCS, or RPMI-FCS alone, were added. Cytokine treatments included recombinant mouse interferon-γ (rmIFNγ; R&D Systems), recombinant human transforming growth factor β1 (rhTGFβ1, R&D Systems), rhTGFβ2 (R&D Systems), rhTGFβ3 (OSI Pharmaceuticals). Antibody treatments included goat anti-mouse IFNγ receptor 1 (αIFNγR; R&D Systems AF1026) and hamster anti-mouse IFNγ (αIFNγ; R&D Systems MAB4851). Culture supernatants were collected and replaced with fresh complete RPMI-FCS alone at 16 hours, then collected again 24 hours later, at which time adherent cells were quantified as previously described (Robertson et al., (1992) Biol. Reprod. 46:1069-1079). The GM-CSF content of 24 h supernatants was determined by GM-CSF bioassay or immunoassay. All treatments were performed in duplicate or triplicate.\nGM-CSF bioassay and immunoassay: Bioactive GM-CSF was assayed using the GM-CSF dependant cell line FD 5/12, essentially as previously described (Robertson et al., (1992) Biol. Reprod. 46:1069-1079). Cell proliferation was determined by the addition of 1 μCi of [^3H]-thymidine per well for the last 6 h of the assay. […] GM-CSF immunoactivity was in some experiments measured by commercial mouse GM-CSF specific ELISA (R & D Systems) according to the manufacturer's instructions."}, "[3]": {"test_system": "uterine luminal fluid content of GM-CSF", "assay": "Effect of IFN-γ treatment on GM-CSF content of uterine luminal fluids in mice (Example 7)", "format": "in vivo", "conditions": "5 ng or 20 ng transcervical on day 1 of pregnancy; fluids 7 hrs later; p=0.03 versus PBS control, treatment groups combined", "experimental": "Mice were housed under specific pathogen-free conditions at the University of Adelaide Medical School Animal House on a 12:12 light-dark cycle, and were administered food and water ad libitum. Adult C57B1/6×CBA F1 females (7-10 weeks old) were caged with proven fertile Balb/c males for natural mating. The day of sighting a vaginal plug was nominated day 1 of pregnancy. Mice were randomly allocated to one of three groups and administered transcervical treatments of either 5 ng or 20 ng recombinant mouse IFN-γ (rmIFN-γ; R&D Systems) in 30 μl PBS containing 0.1% bovine serum albumin (PBS-BSA), or PBS-BSA alone (PBS control), at 0900 h on day 1. Treatments were delivered directly into the uterine lumen with the aid of a tom-cat catheter (Sovereign, St Louis Mo.), after removal of vaginal plugs using forceps to allow transcervical access. Mice were sacrificed 7 hrs later at 1600 h on day 1, and uterine luminal fluids were flushed in 1 ml PBS-BSA with a syringe and 26 gauge needle.\nGM-CSF immunoactivity in uterine luminal fluids was measured by commercial mouse GM-CSF specific ELISA (R & D Systems) according to the manufacturer's instructions. Data are given as GM-CSF content in pg/ml uterine luminal fluid."}},
  "data": [
    {"molecule": "B1", "values": [
      {"measurement": "rIFNγ concentrations at which an inhibitory effect was not seen", "setting": "[1]; DMEM +penicillin", "result": "less than 150 pg/ml"},
      {"measurement": "rIFN-γ concentration eliciting maximal decrease in GM-CSF production", "setting": "[1]; DMEM +penicillin, dose-dependent decrease in each of three experiments", "result": "≥ 2.5", "unit": "ng/mL"},
      {"measurement": "rIFNγ concentration giving maximal decrease in GM-CSF production", "setting": "[1]; DMEM -penicillin, three experiments", "result": "≥ 2.5", "unit": "ng/mL"},
      {"measurement": "rIFNγ concentration at which inhibitory effect was still observed", "setting": "[1]; absence of penicillin", "result": 2, "unit": "pg/mL"},
      {"measurement": "lowest effective concentration of rIFNγ", "setting": "[1]; in the presence of 0.5 ng/ml rTGFβ", "result": 39, "unit": "pg/mL"},
      {"measurement": "lowest effective inhibitory concentration of rIFNγ", "setting": "[1]; in the presence of 5 ng/ml of rTGFβ", "result": 2.5, "unit": "ng/mL"},
      {"measurement": "rIFNγ concentration with maximal inhibition of rTGFβ induction of GM-CSF synthesis", "setting": "[1]; rTGFβ-stimulated cells, DMEM +penicillin", "result": "≥ 2.5", "unit": "ng/mL"},
      {"measurement": "IFNγ concentration giving significant inhibition (GM-CSF synthesis <50% of control values)", "setting": "[2]", "result": "> 150", "unit": "pg/mL"},
      {"measurement": "IFNγ concentration inhibiting GM-CSF synthesis (<50% of control values)", "setting": "[2]; absence of penicillin", "result": "≥ 9.8", "unit": "pg/mL"},
      {"measurement": "IFNγ concentration at which inhibition of GM-CSF synthesis was evident", "setting": "[2]; more than six experiments, penicillin omitted", "result": "≥ 40", "unit": "pg/mL"},
      {"measurement": "effect on uterine luminal fluid content of GM-CSF", "setting": "[3]", "result": "reduce uterine luminal fluid content of GM-CSF"}
    ]}
  ]
}
